Results: US20230181719A1, “NGR CONJUGATES AND USES THEREOF” (OSPEDALE SAN RAFFAELE S.R.L., priority 2020, published 2023)
Read-outs that look alike come from different tables or passages of the source.

Key:
GL261 glioblastoma [1] = type: in vivo, mice; conditions: i.p., 5 ng/kg at day 7, 19 and 31
From the text: Effect of S-NGR-mTNF on the […] glioblastoma growth and animal body weight. C57BL/6J mice (9 weeks old, weighing 18-21 g) were intracranially implanted with 2.5 × 10^4 GL21-Luc2 cells.
C) Kaplan-Maier curves of vehicle and S-NGR-mTNF.
Inventors next investigated the antitumor activity of murine S-NGR-TNF (S-NGR-mTNF) in the GL261 glioblastoma model, one of the most frequently used syngeneic murine glioma models. To this aim, inventors have exploited GL261 cells genetically engineered to express luciferase (GL261-luc2). This allows in vivo visualization of tumors growth and response to treatment within the brain by bioluminescence imaging.

L-M cells = test: LM-cells cytolytic assay (MTT); type: cell-based; conditions: actinomycin D, 20 h, murine proteins
From the text: FIG. 8. Biochemical and biological characterization of murine S-NGR-TNF and NGR-TNF. A) SDS-PAGE under reducing (βMe +) and non-reducing conditions (βMe -) of murine S-NGR-TNF, NGR-TNF and TNF. Arrows: bands corresponding to monomeric subunits (mon) and reducible dimers (dim). B) Representative mass spectra of murine NGR-TNF, TNF and S-NGR-TNF as determined by a Q Exactive HF mass spectrometer. Expected average masses are shown. C) Cytotoxic activity of TNF, NGR-TNF and S-NGR-TNF against L-M cells. L-M cells were incubated in DMEM medium supplemented with 2 mM glutamine, 100 U/ml penicillin, 100 µg/ml streptomycin, 0.25 µg/ml amphotericin-B, 10% fetal bovine serum, 2 µg/ml actinomycin D and TNF, NGR-TNF or S-NGR-TNF at the indicated doses (20 h at 37° C., 5% CO2). Cell viability was quantified by standard 3-(4,5-dimethylthiazol-2-yl)-2,5-diphenyltetrazolium bromide (MTT) assay. D) Binding of TNF, NGR-TNF and S-NGR-TNF to sTNF-R1 (Etanercept). Microtiterplates were precoated with or without the indicated amount of sTNF-R1 (for 16 h), washed with PBS, blocked with PBS containing 3% milk, 1% BSA (binding buffer, 1 h) and incubated with the indicated amounts of TNF, NGR-TNF or S-NGR-TNF diluted in binding buffer (for 1.5 h). The binding of each protein to sTNF-R1 was then detected using a polyclonal anti-murine TNF (IP301, 5 µg/ml in binding buffer, 1 h) followed by a polyclonal goat anti-rabbit antibody conjugated with horseradish peroxidase (1:1000 in binding buffer, 1 h) and o-phenylendiammine as chromogenic substrate.
To assess whether the addition of a serine residue to NGR-TNF affects its capability to recognize the TNF receptors and, consequently, its biological activity, inventors then analyzed the cytotoxic activity of TNF, NGR-TNF and S-NGR-TNF in the LM-cells cytolytic assay.

[2] = tested on: RMA-T lymphoma-bearing mice; type: in vivo; conditions: high dose 2 µg and 6 µg
Procedure: FIG. 13. […] A) Effect of high-dose murine S-NGR-TNF or NGR-TNF on the body weight and tumor volume of RMA-T lymphoma- bearing mice. Six C57BL/6 mice (6-7 weeks old, weighing 18-20 g) were challenged with subcutaneous injection in the left flank of 5 ×10^4 RMA-T cells. Mice bearing RMA lymphomas (6 per group) were treated at day 11 after tumor implantation with 2 µg and 6 µg of murine NGR-TNF or S-NGR-TNF in 0.9% sodium chloride, containing 100 µg/ml endotoxin-free human albumin (i.p.) as indicated (arrows). Animal weights and tumor growth were monitored as indicated. B) Effect of melphalan alone or in combination with low-dose murine S-NGR-TNF on the body weight of RMA-T lymphoma-bearing mice.
To assess the impact of the additional serine residue added to the N-terminus of NGR-TNF on its toxicity and anti-tumor activity inventors injected high-dose NGR-TNF or S-NGR-TNF to mice bearing subcutaneous RMA-T lymphomas (n=6) and evaluated the loss of animal weight. […] Three days later the mice regained the original weight.

[3] = tested on: endothelial EA.hy926 cells; test: EA.hy926 endothelial cell adhesion assay on protein-coated microtiterplates; type: cell-based
Procedure: FIG. 12. […] A) Adhesion of endothelial EA.hy926 cells to 96-wells microtiterplates coated with different amounts of murine TNF, NGR-TNF and S-NGR-TNF in 150 mM sodium chloride, 50 mM sodium phosphate buffer, pH 7.4 (PBS) (16 h). Each well was blocked with 2% BSA in PBS containing calcium chloride and magnesium chloride (DPBS, 30 min), seeded with 40.000 endothelial EA.hy926 cells in DPBS supplemented with 0.1% BSA (DPBS-B), and left to incubate for 2 h at 37° C., 5% CO2. After washing with DMEM-B, adherent cells were stained with crystal violet and quantified by spectrophotometric measurements at 570 nm. B) Microtiterplates pre-coated with 1 µg/ml of murine NGR-TNF or S-NGR-TNF in PBS (for 16 h) were incubated 0.1 M ammonium bicarbonate buffer, pH 8.5 (Ambic) at 37° C. for the indicated time to promote NGR deamidation. EA.hy926 cell adhesion assay was then performed as described above.
This behavior likely reflects a further improvement in the CNGRCG (SEQ ID NO: 1) stability when fused to TNF.

GL261 glioblastoma [4] = tested on: GL261 glioblastoma
Procedure: Mice bearing GL21-Luc2 glioblastomas (9-10 per group) were treated at day 7, 14 and 21 after tumor implantation with the S-NGR-mTNF (5 ng/kg, about 100 pg/mouse, i.p.). Two hours later, mice were injected with the indicated dose of doxorubicin (doxo, i.p.). […] Tumor growth was monitored by measuring the tumor-associated bioluminescence at day 7, 11, 14, 18, 21, and 28 after the administration of luciferin.
Bioluminescent murine glioma GL21-Luc2 cells, engineered to stably express the firefly luciferase, were orthotopically implanted in C57BL/6J mice (9 weeks-old) into the right striatum (2.5x10^4 cells/mouse). Pharmacological treatments started on the 7 days after tumor cell implantation. Mice were injected, i.p., with 5 ng/Kg dose of S-NGR-TNF (about 100 pg/mice, diluted in 0.9% sodium chloride solution containing 100 µg/ml of HSA), or in combination with doxorubicin (5 mg/Kg) administered 2 h later. Tumor growth was monitored by non-invasive bioluminescence imaging using a PhotonImager RT system (Biospace Lab, France) after luciferase substrate administration (i.p.).
The antitumor activity of S-NGR-mTNF was then investigated in combination of doxorubicin (doxo), a chemotherapeutic drug, in the GL261-luc2 model. To this aims, tumor bearing-animal were treated at day 7, 14 and 21 post tumor implantation with S-NGR-mTNF (5 ng/kg, i.p.) and 2 h later with doxo (i.p., 5 mg/kg, corresponding to about 100 µg/mouse). In parallel, control mice were treated with vehicle or doxo alone.

WEHI-164 fibrosarcoma = test: Low-dose treatment in subcutaneous WEHI-164 fibrosarcoma murine model; type: in vivo
Procedure: FIG. 14. […] Balb/c mice (6-7 weeks old, weighing 18-20 g) were injected, s.c., with 1.5×10^6 WEHI-164 cells in the left flank and treated 5 days after tumor implantation (i.p.) with 25 or 50 pg of murine NGR-TNF or S-NGR-TNF in 0.9% sodium chloride, containing 100 µg/ml endotoxin-free human serum albumin (arrows). A) Tumor volumes after treatment (mean±SE, 6 mice per group). B) Tumor weight at day 15 (cumulative data of the two groups treated with 25 and 50 pg of drugs). *, P<0.05, **P<0.01 by unpaired t test of the area under the curve for each tumor (GraphPad Prism software).
To assess whether the addition of the Ser residue to NGR-TNF might affect its anti-tumor activity at low dose, inventors then analyzed the therapeutic activity of NGR-TNF and S-NGR-TNF (25 or 50 pg, i.p.) using the subcutaneous WEHI-164 fibrosarcoma murine model.

RMA lymphoma = type: in vivo, mice
Procedure: FIG. 15. […] C57BL/6 mice (6-7 weeks old, weighing 18-20 g) were challenged with subcutaneous injection in the left flank of 7×10^4 RMA cells. Mice bearing RMA lymphomas (6 per group) were treated 10-11 days (after tumor implantation with 100 pg of murine NGR-TNF or S-NGR-TNF (i.p.). Two hours later, the mice were injected with the indicated dose of melphalan (i.p.). All proteins were diluted with 0.9% sodium chloride, containing 100 µg/ml endotoxin-free human albumin. Tumor growth was monitored daily by measuring the tumors with calipers. A-B) Tumor volume change of two independent experiments are shown (mean±SE). […] C) Tumor bearing-animals were treated at day 10 after tumor implantation as indicated above using the indicated dose of S-NGR-TNF and the generic preparation of melphalan (Melphalan-Tillomed, from Tillomed Italia). RMA tumor weight at day 20 are shown (mean±SE). *, P<0.05, **P<0.01 by unpaired t test analysis with the GraphPad Prism software.
Effect of melphalan alone or in combination with low-dose murine S-NGR-TNF on the body weight and tumor growth of RMA-T lymphoma-bearing mice. Six tumor-bearing mice were injected with the indicated doses of S-NGR-TNF (i.p) and, two hours later, with the generic preparation of melphalan (Melphalan-Tillomed) (i.p.).
Finally, to assess whether low-dose S-NGR-TNF can exert synergistic effects with chemotherapy, as previously observed for NGR-TNF, inventors performed in vivo experiments with S-NGR-TNF and NGR-TNF in combination with melphalan, a chemotherapeutic drug, using the murine RMA lymphoma model (FIG. 15).

B1: S-NGR-TNF: Murine SCNGRCG-TNF fusion protein: serine residue added to the N-terminus of NGR-TNF (SEQ ID NO: 26) (protein)
chain: SCNGRCGLRSSSQNSSDKPVAHVVANHQVEEQLEWLSQRANALLANGMDLKDNQLVVPADGLYLVYSQVLFKGQGCPDYVLLTHTVSRFAISYQEKVNLLSAVKSPCPKDTPEGAELKPWYEPIYLGGVFQLEKGDQLSAEVNLPKYLDFAESGQVYFGVIAL
gain of body weight of cured animals (GL261 glioblastoma [1]): about +15%
tumor growth (GL261 glioblastoma [1]): significantly delayed tumor growth
EC50 cytotoxic activity (L-M cells): very similar
antitumor effects compared to NGR-TNF [2]: slightly stronger antitumor effects
EA.hy926 cell adhesion to coated plates ([3]; plates coated in PBS, no forced deamidation): not
EA.hy926 cell adhesion after forced deamidation ([3]; plates treated with 0.1 M ammonium bicarbonate buffer, pH 8.5, compared to NGR-TNF): a longer time of incubation under deamidation conditions was necessary
mice with delayed tumor growth (GL261 glioblastoma [4]; S-NGR-mTNF 5 ng/kg i.p. and 2 h later doxo 5 mg/kg, day 7, 14, 21): 55%
toxicity of doxo, judged from loss of animal weight (GL261 glioblastoma [4]; S-NGR-mTNF 5 ng/kg with doxo 5 mg/kg): did not exacerbate the toxicity of doxo
tumor growth (GL261 glioblastoma [4]; S-NGR-mTNF 5 ng/kg with doxo 5 mg/kg (combination therapy)): could significantly delay tumor growth
anti-tumor effects compared to 25 pg of NGR-TNF (WEHI-164 fibrosarcoma; 25 pg): slightly stronger anti-tumor effects
toxicity (WEHI-164 fibrosarcoma; 25 or 50 pg, i.p.): No evidence of toxicity
tumor growth (WEHI-164 fibrosarcoma; 25 or 50 pg, i.p.): delayed tumor growth to similar extent
efficacy of melphalan in combination (RMA lymphoma; 100 pg i.p., melphalan two hours later): could enhance the efficacy of melphalan
antitumor activity of combination (RMA lymphoma; S-NGR-TNF 100 pg with melphalan 50 µg): significant increase of antitumor activity
antitumor effect compared to NGR-TNF (RMA lymphoma; in combination with melphalan): slightly stronger antitumor effect
